One assay has as its target T1, 6xHis-tagged PP1 7-330 (human, UniProt P62136 7-330).
T1 construct: Serine/threonine-protein phosphatase PP1-alpha catalytic subunit, human, UniProt P62136, residues 7-330; Captured by its His tag on 4PCP-NTA chips; a TEV site lies between tag and protein; source: E. coli BL21 (DE3) pGro7, purified (Ni-NTA, SEC); not shown: His6, N-terminal, kept
Nature of the assay: grating-coupled interferometry (GCI); 6xHis-tagged PP1 7-330 captured on 4PCP-NTA WAVE chips (3600 pg/mm2 for PTG 81-107, 1600 pg/mm2 for PTG 81-132); peptides injected, 1:2 dilution series from 300 nM; 10 mM Hepes pH 7.2, 150 mM NaCl, 0.005% Tween 20, 0.2 mg/ml BSA; 25 °C; 100 µl/min; mass transport binding model. The following applies: both partners purified.

The target in assay [1] is T2, PP1 7-330 (Serine/threonine-protein phosphatase PP1-alpha catalytic subunit, residues 7-330) (human, UniProt P62136 7-330).
T2 construct: Serine/threonine-protein phosphatase PP1-alpha catalytic subunit, human, UniProt P62136, residues 7-330; source: E. coli BL21 (DE3) pGro7, purified (Ni-NTA, SEC)
T2 sequence (P62136 7-330): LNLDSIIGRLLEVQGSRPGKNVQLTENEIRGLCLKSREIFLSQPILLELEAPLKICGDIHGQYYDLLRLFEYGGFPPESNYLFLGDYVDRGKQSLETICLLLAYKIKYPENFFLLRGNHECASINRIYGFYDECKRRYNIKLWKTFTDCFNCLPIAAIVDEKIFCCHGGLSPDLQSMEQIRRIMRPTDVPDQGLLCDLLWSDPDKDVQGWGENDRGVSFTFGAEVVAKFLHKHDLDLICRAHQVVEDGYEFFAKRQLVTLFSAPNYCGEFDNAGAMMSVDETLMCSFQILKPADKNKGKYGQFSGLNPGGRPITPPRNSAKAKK
Description: grating-coupled interferometry (GCI); PTG 70-264 immobilised by amine coupling on a 4PCH WAVE chip at 1000 pg/mm2; PP1 7-330 injected, 1:2 dilution series from 400 nM; 10 mM Hepes pH 7.2, 150 mM NaCl, 0.005% Tween 20; 25 °C; 30 µl/min; mass transport binding model. The following applies: both partners purified.

For 3 molecules, Kd, koff and kon results are on record in publication PMC9582199, “Molecular architecture of the glycogen- committed PP1/PTG holoenzyme” (Nature Communications, 2022).

T1 sequence (P62136 7-330): as above

B1: PTG peptide 81-107 (peptide, UniProt Q9UQK1 81-107, looked up)
peptide: AKKRVVFADSKGLSLTAIHVFSDLPEE
notes: also called peptide 1; source: synthetic peptide, bought: ProteoGenix SAS
Broadly, the Kd is the constant that tells how readily two partners part at equilibrium. A low value points to a tighter complex. What is called koff is the first-order rate constant of dissociation. A low value points to a long-lived complex. Usually kon stands for a measure of how fast the partners come together. Read a high kon as faster complex formation. In the assay with 6xHis-tagged PP1 7-330, B1 had a dissociation constant (Kd) of 14.1 nM, a koff of 0.00295 s⁻¹ and a kon of 208000 M⁻¹ s⁻¹.

B2: PTG 70-264 (Protein phosphatase 1 regulatory subunit 3C, residues 70-264) (domain or fragment, human, UniProt Q9UQK1 70-264, looked up)
chain: SQNDWKCSHNQAKKRVVFADSKGLSLTAIHVFSDLPEEPAWDLQFDLLDLNDISSALKHHEEKNLILDFPQPSTDYLSFRSHFQKNFVCLENCSLQERTVTGTVKVKNVSFEKKVQIRITFDSWKNYTDVDCVYMKNVYGGTDSDTFSFAIDLPPVIPTEQKIEFCISYHANGQVFWDNNDGQNYRIVHVQWKPD
notes: GST removed on the column with 3C protease; also called PPP1R3C; protein targeting to glycogen; source: E. coli, co-expressed with GroEL/ES (pGro7), purified (glutathione agarose, SEC); for the crystal co-expressed with PP1 7-300; not shown: GST, N-terminal, cleaved
In the case of B2, in assay [1], binding was put at a Kd of 87 nM, the koff came to 0.0043 s⁻¹ and the association rate constant (kon) was 50000 M⁻¹ s⁻¹.

B3: PTG peptide 81-132 (peptide, UniProt Q9UQK1 81-132, looked up)
peptide: AKKRVVFADSKGLSLTAIHVFSDLPEEPAWDLQFDLLDLNDISSALKHHEEK
notes: also called peptide 2; source: synthetic peptide, bought: ProteoGenix SAS
For the molecule B3, in the assay with 6xHis-tagged PP1 7-330, binding was put at a Kd of 7.7 nM, the koff is 0.0026 s⁻¹ and the association rate constant (kon) stood at 357000 M⁻¹ s⁻¹.
